Experimental data as given in patent US20240131147A1.

Biological target: HIV-1 Clade B Env RHPA on pseudotyped virus (HIV-1)
Test: competition ELISA on coated RHPA pseudovirus; competitors: sera of MLA092- and MLA025-immunized mice diluted 1:400

Substance: 10E8 broadly neutralizing human anti-HIV-1 Env monoclonal antibody
- concentration that completely inhibited the binding of sera: 2 µg/mL
